According to PMC4195687, “Computational and Experimental Characterization of dVHL Establish a Drosophila Model of VHL Syndrome” (PLoS ONE, 2014):
Where no end group is shown, it is not given here. [ ]: non-standard residue; d: D form. Hyp = O=C(O)[C@@H]1C[C@@H](O)CN1

T1: Drosophila von Hippel-Lindau protein dVHL (Drosophila melanogaster, UniProt Q9V3C1 1-178)
T1 construct: Drosophila melanogaster VHL (dVHL), ORF re-engineered to E. coli codon usage, cloned in pET14b (NdeI/XhoI); migrated as a 19 kDa protein; also called Drosophila VHL
T1 sequence (looked up): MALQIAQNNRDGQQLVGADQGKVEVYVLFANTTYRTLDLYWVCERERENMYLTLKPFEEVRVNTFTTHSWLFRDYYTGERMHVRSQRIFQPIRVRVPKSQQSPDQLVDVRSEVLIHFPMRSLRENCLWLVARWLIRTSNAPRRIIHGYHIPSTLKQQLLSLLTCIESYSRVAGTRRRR


What was measured:
[1] = target: T2, human von Hippel-Lindau tumor suppressor protein pVHL (19 kDa) (human, UniProt P40337-3 1-160); test: ELISA; ELISA-based binding assay: pVHL or dVHL (10 µg/ml, 500 nM, in 10 mM Tris-HCl pH 8, 200 mM NaCl, 200 mM GnHCl) coated on the plate overnight at 4°C, blocked with 5% BSA; TAMRA-labelled peptide at increasing concentrations, 1 h at 25°C; fluorescence at 580 nm, after subtraction of the BSA control; conditions: both partners purified
T2 construct: numbers count on: the 30 kDa isoform (Y98, W117 and so on)
T2 sequence (P40337 54-213): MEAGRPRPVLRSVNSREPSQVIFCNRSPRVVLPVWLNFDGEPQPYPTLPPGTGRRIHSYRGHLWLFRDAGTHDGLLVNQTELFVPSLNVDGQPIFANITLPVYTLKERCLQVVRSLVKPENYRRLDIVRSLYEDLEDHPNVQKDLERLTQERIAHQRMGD

[2] = target: T1, Drosophila von Hippel-Lindau protein …; test: as above; conditions: both partners purified

Binder | fold stronger binding than to dVHL [1] [fold] | binding result [2]
DALTLLA[Hyp]AAGDTIISLDF (also: TAMRA label, position not given here, human HIF1-α, residues 395-413 of the oxygen dependent degradation domain; also called HIF1-α P402; HIF1-α-derived peptide; source: synthetic peptide (Hy Laboratory Ltd, Israel)) [Hyp402-ODD-HIF peptide (HIF1-α residues 395-413, hydroxyproline 402, TAMRA-labelled)] | ~1.5 | binds
SFEAFAGRA[Hyp]YIPIDDD (also: TAMRA label, position not given here, Drosophila SIMA (fly homolog of HIF1-α), residues 841-857 of its ODD; The peptide has two prolines (P850 and P853); by its name the hydroxylated one is P850; also called SIMA-derived peptide; source: synthetic peptide (Hy Laboratory Ltd, Israel)) [Hyp850-ODD-SIMA peptide (SIMA residues 841-857, hydroxyproline 850, TAMRA-labelled)] | ~1.5 | binds
